According to patent US20240343823A1 (Ablynx, published 2024):
Changes are numbered by the printed parent chain. Like-named read-outs stand apart in the source and are kept apart here.

B1: A022600412 (other)
chain: DVQLVESGGGVVQPGGSLRLSCVASGYVHKINFYGWYRQAPGKEREKVAHISIGDQTDYADSAKGRFTISRDESKNTVYLQMNSLRPEDTAAYYCRALSRIWPYDYWGQGTLVTVSSGGGGSEVQLVESGGGVVQPGGSLRLSCAASGFTFSSFAMTWVRRPPGKGLEWVATITNAGVTSYADSVKGRFTISRDNAKNTLYLQMNSLRPEDTALYICANARRTGPRAPTDIGSYRGQGTLVTVSSGGGGSGGGGSGGGGSGGGGSEVQLVESGGGVVQPGGSLRLSCAASGFTFRSFGMSWVRQAPGKGPEWVSSISGSGSDTLYADSVKGRFTISRDNSKNTLYLQMNSLRPEDTALYYCTIGGSLSRSSQGTLVTVSSA
B2: A022600170 (other)
chain: DVQLVESGGGVVQPGGSLRLSCVASGYVHKINFYGWYRQAPGKEREKVAHISIGDQTDYADSAKGRFTISRDESKNTVYLQMNSLRPEDTAAYYCRALSRIWPYDYWGQGTLVTVSSGGGGSEVQLVESGGGLVQPGGSLRLSCVASGFTFSSFAMTWVRRPPGKGLEWVATITNGGVTSYRDSVKGRFTISRDNAKNTLYLEMTSLNPEDTAVYICANARRTGPRAPTDIGSYRGQGTLVTVSSGGGGSGGGGSGGGGSGGGGSGGGGSGGGGSGGGGSEVQLVESGGGLVQPGGSLRLSCVASGSIFRSVFSSSTMEWYRQPPGKKRELVARIAPGDGTNYGALYADSVKGRFTISRDDAKKTVDLQMNSLKPEDTGVYFCASGVAWGQGTLVTVSSGGGGSGGGSEVQLVESGGGVVQPGGSLRLSCAASGFTFRSFGMSWVRQAPGKGPEWVSSISGSGSDTLYADSVKGRFTISRDNSKNTLYLQMNSLRPEDTALYYCTIGGSLSRSSQGTLVTVSSA
B3: A022600169 (other)
chain: DVQLVESGGGLVQPGGSLRLSCVASGFTFSSFAMTWVRRPPGKGLEWVATITNGGVTSYRDSVKGRFTISRDNAKNTLYLEMTSLNPEDTAVYICANARRTGPRAPTDIGSYRGQGTLVTVSSGGGGSEVQLVESGGGVVQPGGSLRLSCVASGYVHKINFYGWYRQAPGKEREKVAHISIGDQTDYADSAKGRFTISRDESKNTVYLQMNSLRPEDTAAYYCRALSRIWPYDYWGQGTLVTVSSGGGGSEVQLVESGGGLVQPGGSLRLSCVASGSIFRSVFSSSTMEWYRQPPGKKRELVARIAPGDGTNYGALYADSVKGRFTISRDDAKKTVDLQMNSLKPEDTGVYFCASGVAWGQGTLVTVSSGGGGSGGGGSGGGGSGGGGSGGGGSGGGGSGGGGSEVQLVESGGGVVQPGGSLRLSCAASGFTFRSFGMSWVRQAPGKGPEWVSSISGSGSDTLYADSVKGRFTISRDNSKNTLYLQMNSLRPEDTALYYCTIGGSLSRSSQGTLVTVSSA
B4: A022600179 (other)
chain: DVQLVESGGGVVQPGGSLRLSCVASGYVHKINFYGWYRQAPGKEREKVAHISIGDQTDYADSAKGRFTISRDESKNTVYLQMNSLRPEDTAAYYCRALSRIWPYDYWGQGTLVTVSSGGGGSEVQLVESGGGLVQPGGSLRLSCVASGFTFSSFAMTWVRRPPGKGLEWVATITNGGVTSYRDSVKGRFTISRDNAKNTLYLEMTSLNPEDTAVYICANARRTGPRAPTDIGSYRGQGTLVTVSSGGGGSGGGSEVQLVESGGGVVQPGGSLRLSCAASGFTFRSFGMSWVRQAPGKGPEWVSSISGSGSDTLYADSVKGRFTISRDNSKNTLYLQMNSLRPEDTALYYCTIGGSLSRSSQGTLVTVSSA
B5: A022600172 (other)
chain: DVQLVESGGGVVQPGGSLRLSCVASGYVHKINFYGWYRQAPGKEREKVAHISIGDQTDYADSAKGRFTISRDESKNTVYLQMNSLRPEDTAAYYCRALSRIWPYDYWGQGTLVTVSSGGGGSEVQLVESGGGLVQPGGSLRLSCVASGFTFSSFAMTWVRRPPGKGLEWVATITNGGVTSYRDSVKGRFTISRDNAKNTLYLEMTSLNPEDTAVYICANARRTGPRAPTDIGSYRGQGTLVTVSSGGGGSGGGSEVQLVESGGGVVQPGGSLRLSCAASGFTFRSFGMSWVRQAPGKGPEWVSSISGSGSDTLYADSVKGRFTISRDNSKNTLYLQMNSLRPEDTALYYCTIGGSLSRSSQGTLVTVSSGGGGSGGGSEVQLVESGGGLVQPGGSLRLSCVASGSIFRSVFSSSTMEWYRQPPGKKRELVARIAPGDGTNYGALYADSVKGRFTISRDDAKKTVDLQMNSLKPEDTGVYFCASGVAWGQGTLVTVSSA
B6: A022600425 (other)
chain: DVQLVESGGGVVQPGGSLRLSCVASGYVHKINFYGWYRQAPGKEREKVAHISIGDQTDYADSAKGRFTISRDESKNTVYLQMNSLRPEDTAAYYCRALSRIWPYDYWGQGTLVTVSSGGGGSEVQLVESGGGVVQPGGSLRLSCAASGSIFRSVFSSSTMEWYRQAPGKKRELVARIAPGEGTYYGALYADSVKGRFTISRDNAKNTVYLQMNSLRPEDTALYYCASGVAWGQGTLVTVSSGGGGSGGGGSGGGGSGGGGSEVQLVESGGGVVQPGGSLRLSCAASGFTFSSFAMTWVRRPPGKGLEWVATITNAGVTSYADSVKGRFTISRDNAKNTLYLQMNSLRPEDTALYICANARRTGPRAPTDIGSYRGQGTLVTVSSGGGGSGGGSEVQLVESGGGVVQPGGSLRLSCAASGFTFRSFGMSWVRQAPGKGPEWVSSISGSGSDTLYADSVKGRFTISRDNSKNTLYLQMNSLRPEDTALYYCTIGGSLSRSSQGTLVTVSSA
B7: A022600426 (other)
chain: B6 chain with A315K
B8: A022600427 (other)
chain: DVQLVESGGGVVQPGGSLRLSCVASGYVHKINFYGWYRQAPGKEREKVAHISIGDQTDYADSAKGRFTISRDESKNTVYLQMNSLRPEDTAAYYCRALSRIWPYDYWGQGTLVTVSSGGGGSEVQLVESGGGVVQPGGSLRLSCAASGFTFSSFAMTWVRRPPGKGLEWVATITNAGVTSYADSVKGRFTISRDNAKNTLYLQMNSLRPEDTALYICANARRTGPRAPTDIGSYRGQGTLVTVSSGGGGSGGGSEVQLVESGGGVVQPGGSLRLSCAASGSIFRSVFSSSTMEWYRQAPGKKRELVARIAPGEGTYYGALYADSVKGRFTISRDNAKNTVYLQMNSLRPEDTALYYCASGVAWGQGTLVTVSSGGGGSGGGSEVQLVESGGGVVQPGGSLRLSCAASGFTFRSFGMSWVRQAPGKGPEWVSSISGSGSDTLYADSVKGRFTISRDNSKNTLYLQMNSLRPEDTALYYCTIGGSLSRSSQGTLVTVSSA
B9: A022600175 (other)
chain: DVQLVESGGGVVQPGGSLRLSCVASGYVHKINFYGWYRQAPGKEREKVAHISIGDQTDYADSAKGRFTISRDESKNTVYLQMNSLRPEDTAAYYCRALSRIWPYDYWGQGTLVTVSSGGGGSEVQLVESGGGLVQPGGSLRLSCVASGFTFSSFAMTWVRRPPGKGLEWVATITNGGVTSYRDSVKGRFTISRDNAKNTLYLEMTSLNPEDTAVYICANARRTGPRAPTDIGSYRGQGTLVTVSSGGGGSGGGSEVQLVESGGGLVQPGGSLRLSCVASGSIFRSVFSSSTMEWYRQPPGKKRELVARIAPGDGTNYGALYADSVKGRFTISRDDAKKTVDLQMNSLKPEDTGVYFCASGVAWGQGTLVTVSSGGGGSGGGGSGGGGSGGGGSGGGGSGGGGSGGGGSEVQLVESGGGVVQPGGSLRLSCAASGFTFRSFGMSWVRQAPGKGPEWVSSISGSGSDTLYADSVKGRFTISRDNSKNTLYLQMNSLRPEDTALYYCTIGGSLSRSSQGTLVTVSSA

Legend:
Experiment in all cases: cell-based or functional assay
[1] = target: T1, human GPC3 on tumor cell lines (HepG2, Huh-7, NCI-H661, MKN-45, NCI-H23, BxPC-3, NCI-H292) (human, UniProt P51654 25-554)
[2] = target: T1, human GPC3 on tumor cell lines (HepG2, …); remark: listed apart in the source
[3] = target: T1, human GPC3 on tumor cell lines (HepG2, …); remark: listed apart in the source
[4] = target: T1, human GPC3 on tumor cell lines (HepG2, …); remark: listed apart in the source

| Binder | IC50 (M) BxPC-3, xCELLigence human TDC assay [1] [M] | IC50 (M) HepG2, xCELLigence human TDC assay [1] [M] | IC50 (M) Huh-7, xCELLigence human TDC assay [1] [M] | IC50 (M) NCI-H661, xCELLigence human TDC assay [1] [M] | HepG2 on Incucyte IC50 [2] [pM] | HepG2 on Incucyte Max % killing [2] [%] | Huh7 on xCELLigence IC50 [2] [pM] | Huh7 on xCELLigence Max % killing [2] [%] | IC50 (M) NCI-H23, xCELLigence human TDC assay [1] [M] | further results |
| --- | --- | --- | --- | --- | --- | --- | --- | --- | --- | --- |
| B1 | > 1e-07 | 3.82e-10 | 1.53e-09 | 6.18e-10 | – | – | – | – | – | – |
| B2 | – | – | – | – | 319 | 97 | 186 | 103 | – | – |
| B3 | – | – | – | – | – | – | – | – | – | HepG2 on Incucyte IC50 [3]: 641 pM; HepG2 on Incucyte Max % killing [3]: 81%; Huh7 on xCELLigence IC50 [3]: 1020 pM; Huh7 on xCELLigence Max % killing [3]: 61% |
| B4 | – | – | – | – | 2920 | 76 | 6130 | 66 | – | – |
| B5 | – | – | – | – | – | – | – | – | – | HepG2 on Incucyte IC50 [3]: 601 pM; HepG2 on Incucyte Max % killing [3]: 81%; Huh7 on xCELLigence IC50 [3]: 67 pM; Huh7 on xCELLigence Max % killing [3]: 90% |
| B6 | > 1e-07 | 1.11e-10 | 1.58e-10 | 2.59e-10 | – | – | – | – | > 1e-07 | – |
| B7 | > 1e-07 | 1.25e-10 | 1.09e-10 | 2.64e-10 | – | – | – | – | > 1e-07 | – |
| B8 | > 1e-07 | 1.03e-10 | 1.37e-10 | 1e-10 | – | – | – | – | > 1e-07 | – |
| B9 | – | – | – | – | 527 | 96 | 58.6 | 99 | – | HepG2 on Incucyte IC50 [4]: 527 pM; HepG2 on Incucyte Max % killing [4]: 96%; Huh7 on xCELLigence IC50 [4]: 58.6 pM; Huh7 on xCELLigence Max % killing [4]: 99% |
